Experimental data as given in ChEMBL document CHEMBL4038281, “Competitive protein tyrosine phosphatase 1B (PTP1B) inhibitors, prenylated caged xanthones from Garcinia hanburyi and their inhibitory mechanism” (Bioorg Med Chem, 2017).

Tests used:
[1] = substrate: CC(C)=CCC[C@]1(C)C=Cc2c(O)c3c(c(CC=C(C)C)c2O1)O[C@]12C(=C[C@@H]4C[C@H]1C(C)(C)O[C@@]2(C/C=C(/C)C(=O)O)C4=O)C3=O; conditions: Homo sapiens; 24.8 uM
[2] = substrate: CC(C)=CCC[C@]1(C)C=Cc2c(O)c3c(c(CC=C(C)C)c2O1)O[C@]12C(=C[C@@H]4C[C@H]1C(C)(C)O[C@@]2(C/C=C(/C)C(=O)O)C4=O)C3=O; conditions: Homo sapiens; 12.4 uM
Description: Competitive inhibition of recombinant human PTP1B (1 to 322 residues) expressed in Escherichia coli assessed as substrate Km at 12.4 uM using pNPP as substrate by Lineweaver-Burk plot analysis

[3] = substrate: CC(C)=CCC[C@]1(C)C=Cc2c(O)c3c(c(CC=C(C)C)c2O1)O[C@]12C(=C[C@@H]4C[C@H]1C(C)(C)O[C@@]2(C/C=C(/C)C(=O)O)C4=O)C3=O; conditions: Homo sapiens; 24.8 uM; remark: listed apart in the source
Description: Competitive inhibition of recombinant human PTP1B (1 to 322 residues) expressed in Escherichia coli assessed as substrate Km at 24.8 uM using pNPP as substrate by Lineweaver-Burk plot analysis

[4] = substrate: CC(C)=CCC[C@]1(C)C=Cc2c(O)c3c(c(CC=C(C)C)c2O1)O[C@]12C(=C[C@@H]4C[C@H]1C(C)(C)O[C@@]2(C/C=C(/C)C(=O)O)C4=O)C3=O; conditions: Homo sapiens; 12.4 uM; remark: listed apart in the source
[5] = substrate: CC(C)=CCC[C@]1(C)C=Cc2c(O)c3c(c(CC=C(C)C)c2O1)O[C@]12C(=C[C@@H]4C[C@H]1C(C)(C)O[C@@]2(C/C=C(/C)C(=O)O)C4=O)C3=O; conditions: Homo sapiens; 49.6 uM
Description: Competitive inhibition of recombinant human PTP1B (1 to 322 residues) expressed in Escherichia coli assessed as substrate Km at 49.6 uM using pNPP as substrate by Lineweaver-Burk plot analysis

[6] = substrate: CC(C)=CCC[C@]1(C)C=Cc2c(O)c3c(c(CC=C(C)C)c2O1)O[C@]12C(=C[C@@H]4C[C@H]1C(C)(C)O[C@@]2(C/C=C(/C)C(=O)O)C4=O)C3=O; conditions: Homo sapiens; 49.6 uM; remark: listed apart in the source

B1: Tyrosine-protein phosphatase non-receptor type 1 (Homo sapiens), P18031 (protein)
chain: MEMEKEFEQIDKSGSWAAIYQDIRHEASDFPCRVAKLPKNKNRNRYRDVSPFDHSRIKLHQEDNDYINASLIKMEEAQRSYILTQGPLPNTCGHFWEMVWEQKSRGVVMLNRVMEKGSLKCAQYWPQKEEKEMIFEDTNLKLTLISEDIKSYYTVRQLELENLTTQETREILHFHYTTWPDFGVPESPASFLNFLFKVRESGSLSPEHGPVVVHCSAGIGRSGTFCLADTCLLLMDKRKDPSSVDIKKVLLEMRKFRMGLIQTADQLRFSYLAVIEGAKFIMGDSSVQDQWKELSHEDLEPPPEHIPPPPRPPKRILEPHNGKCREFFPNHQWVKEETQEDKDCPIKEEKGSPLNAAPYGIESMSQDTEVRSRVVGGSLRGAQAASPAKGEPSLPEKDEDHALSYWKPFLVNMCVATVLTAGAYLCYRFLFNSNT
[1]
  Vmax (optical density/minute): 12.9
[2]
  Km: 4.46 mM
[3]
  Km: 6.84 mM
[4]
  Vmax (optical density/minute): 12.6
[5]
  Km: 12.7 mM
[6]
  Vmax (optical density/minute): 13.7
